Km, kcat and kcat/Km data for one substance are collected here from paper PMC9452428, “Molecular study on recombinant cold-adapted, detergent- and alkali stable esterase (EstRag) from Lysinibacillus sp.: a member of family VI” (World Journal of Microbiology & Biotechnology, 2022).

This series has as its system CC(=O)Oc1ccc([N+](=O)[O-])cc1. The experiment in a line: purified protein. Conditions: 50 mM Tris-HCl pH 8.0, room temperature, substrate 0.0015-3.0 mM.

The Km is the substrate concentration at which the rate is half of its maximum. Broadly, the kcat is the maximal rate divided by the concentration of active sites. A word on the kcat/Km: it is the turnover number divided by the Michaelis constant. On to EstRag (Lysinibacillus sp. YS11), for which the Km was determined as 31 µM, the kcat was determined as 20.4 s⁻¹ and the kcat/Km came out at 658000 M⁻¹ s⁻¹.
